Experimental data taken from paper PMC3913756, “Mycobacterium tuberculosis Cyclophilin A Uses Novel Signal Sequence for Secretion and Mimics Eukaryotic Cyclophilins for Interaction with Host Protein Repertoire” (PLoS ONE, 2014).

Target: T1, His6-tagged M. tuberculosis PpiA (cyclophilin A) (Mycobacterium tuberculosis H37Rv, UniProt P9WHW3 1-182)
T1 construct: also called Rv0009; MTBPPIA
Experiment: native gel or EMSA
Settings: both partners purified

B1: purified M. tuberculosis Ef-Tu (Tuf) (natural protein)
chain: not shown
binding result: binds
